According to PMC10786891, “Massively parallel profiling of RNA-targeting CRISPR-Cas13d”:
Changes are numbered by the printed parent chain. Names may count otherwise.

T1: EsCas13d, nuclease-dead (Eubacterium siraeum, UniProt B0MS50, R295A;H300A;R849A;H854A)
T1 sequence: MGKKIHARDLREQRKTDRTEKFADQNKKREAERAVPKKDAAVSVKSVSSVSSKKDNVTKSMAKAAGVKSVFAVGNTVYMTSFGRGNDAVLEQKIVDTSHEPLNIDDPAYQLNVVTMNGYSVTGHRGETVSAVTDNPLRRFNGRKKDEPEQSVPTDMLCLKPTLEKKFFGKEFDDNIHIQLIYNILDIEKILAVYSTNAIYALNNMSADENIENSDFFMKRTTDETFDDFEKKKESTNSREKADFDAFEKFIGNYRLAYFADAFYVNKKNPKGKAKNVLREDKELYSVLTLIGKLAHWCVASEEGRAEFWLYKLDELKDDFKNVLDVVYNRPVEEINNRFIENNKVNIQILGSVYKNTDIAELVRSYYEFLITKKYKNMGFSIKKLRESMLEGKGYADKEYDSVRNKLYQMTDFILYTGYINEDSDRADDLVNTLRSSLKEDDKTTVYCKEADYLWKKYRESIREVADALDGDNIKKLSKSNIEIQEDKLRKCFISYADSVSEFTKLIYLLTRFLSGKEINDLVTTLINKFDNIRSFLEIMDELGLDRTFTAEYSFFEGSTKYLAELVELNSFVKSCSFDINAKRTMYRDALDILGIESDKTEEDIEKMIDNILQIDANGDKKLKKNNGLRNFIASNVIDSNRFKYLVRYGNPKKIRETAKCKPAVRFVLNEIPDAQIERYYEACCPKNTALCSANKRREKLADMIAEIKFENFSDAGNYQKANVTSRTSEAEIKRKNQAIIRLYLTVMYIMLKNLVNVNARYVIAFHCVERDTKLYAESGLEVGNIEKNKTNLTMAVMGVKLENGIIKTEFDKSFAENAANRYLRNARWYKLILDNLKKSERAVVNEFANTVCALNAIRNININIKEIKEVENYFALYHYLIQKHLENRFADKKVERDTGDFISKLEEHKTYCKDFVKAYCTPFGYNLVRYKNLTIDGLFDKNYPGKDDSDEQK

B1: target 3 C16U (mixed)
RNA 1: CACCCGUGCAAAAUUGCAGGGGUCUAAAACGACCUGAAUAUUUCAGAUCAAA
RNA 2: GGGAAUGGAUCCACAUCUACGAAUUCGUUUUUGAUUUGAAAUAUUCAGGUCUGCAGAUCGGAAGAGCACACGU
B2: target 3 G3U,U8A (mixed)
RNA 1: B1 RNA 1
RNA 2: B1 RNA 2 with U36C, U44A, G49U
B3: target 3 C1A,C16U (mixed)
RNA 1: B1 RNA 1
RNA 2: B1 RNA 2 with C51A
B4: target 3 insU 3' of 16,insC 3' of 3 (mixed)
RNA 1: B1 RNA 1
RNA 2: GGGAAUGGAUCCACAUCUACGAAUUCGUUUUUGAUCUUGAAAUAUUCAGGCUCUGCAGAUCGGAAGAGCACACGU
B5: target 1 insC 3' of 17,insU 3' of 2 (mixed)
RNA 1: CACCCGUGCAAAAAUGCAGGGGUCUAAAACUGAGCGGAUAACCUCUCUAUGG
RNA 2: GGGAAUGGAUCCACAUCUACGAAUUCGUACCAUAGCAGAGGUUAUCCGCUCUACCGAGAUCGGAAGAGCACACGU
B6: target 3 insG 3' of 2,insA 3' of 1 (mixed)
RNA 1: B1 RNA 1
RNA 2: GGGAAUGGAUCCACAUCUACGAAUUCGUUUUUGAUCUGAAAUAUUCAGGUGCAUGCAGAUCGGAAGAGCACACGU
B7: target 3 C1U,U2A (mixed)
RNA 1: B1 RNA 1
RNA 2: B1 RNA 2 with U36C, U50A, C51U
B8: target 3 A5U,C6A (mixed)
RNA 1: B1 RNA 1
RNA 2: B1 RNA 2 with U36C, C46A, A47U
B9: target 3 insC 3' of 11,insG 3' of 2 (mixed)
RNA 1: B1 RNA 1
RNA 2: B4 RNA 2 with U38G, G39A, A42C, C51U, U52G
B10: target 3 U2A,U22C (mixed)
RNA 1: B1 RNA 1
RNA 2: B1 RNA 2 with U30C, U36C, U50A
B11: target 3 insU 3' of 22,insU 3' of 13 (mixed)
RNA 1: B1 RNA 1
RNA 2: GGGAAUGGAUCCACAUCUACGAAUUCGUUUUUUGAUCUGAUAAUAUUCAGGUCUGCAGAUCGGAAGAGCACACGU
B12: target 3 U21A,U22A (mixed)
RNA 1: B1 RNA 1
RNA 2: B1 RNA 2 with U30A, U31A, U36C
B13: target 3 U2A,A12U (mixed)
RNA 1: B1 RNA 1
RNA 2: B1 RNA 2 with U36C, A40U, U50A
B14: target 3 del4,del8 (mixed)
RNA 1: B1 RNA 1
RNA 2: GGGAAUGGAUCCACAUCUACGAAUUCGUUUUUGAUCUGAAAUAUCAGUCUGCAGAUCGGAAGAGCACACGU
B15: target 3 C6A,A9G (mixed)
RNA 1: B1 RNA 1
RNA 2: B1 RNA 2 with U36C, A43G, C46A
B16: target 1 C2U,G5A (mixed)
RNA 1: B5 RNA 1
RNA 2: GGGAAUGGAUCCACAUCUACGAAUUCGUACCAUAGAGAGGUUAUCCACUUACCGAGAUCGGAAGAGCACACGU
B17: target 1 insG 3' of 3,insC 3' of 1 (mixed)
RNA 1: B5 RNA 1
RNA 2: GGGAAUGGAUCCACAUCUACGAAUUCGUACCAUAGAGAGGUUAUCCGCUGCACCCGAGAUCGGAAGAGCACACGU
B18: target 3 insC 3' of 13,insU 3' of 4 (mixed)
RNA 1: B1 RNA 1
RNA 2: B4 RNA 2 with U38G, G39A, A40C, G50U, C51G
B19: target 3 complement block 18-20 (mixed)
RNA 1: B1 RNA 1
RNA 2: B1 RNA 2 with U32A, G33C, A34U, U36C
B20: target 3 G4C,U8A (mixed)
RNA 1: B1 RNA 1
RNA 2: B1 RNA 2 with U36C, U44A, G48C
B21: target 3 insC 3' of 22,insA 3' of 22 (mixed)
RNA 1: B1 RNA 1
RNA 2: GGGAAUGGAUCCACAUCUACGAAUUCGUUUCAUUGAUCUGAAAUAUUCAGGUCUGCAGAUCGGAAGAGCACACGU
B22: target 3 A5U,U8G (mixed)
RNA 1: B1 RNA 1
RNA 2: B1 RNA 2 with U36C, U44G, A47U
B23: target 3 A13G,U22G (mixed)
RNA 1: B1 RNA 1
RNA 2: B1 RNA 2 with U30G, U36C, A39G
B24: target 3 insA 3' of 6,insC 3' of 5 (mixed)
RNA 1: B1 RNA 1
RNA 2: B6 RNA 2 with G48A, G49C, U50G, C52U, A53C
B25: target 3 A9G,U22C (mixed)
RNA 1: B1 RNA 1
RNA 2: B1 RNA 2 with U30C, U36C, A43G
B26: target 3 C1G,U8A (mixed)
RNA 1: B1 RNA 1
RNA 2: B1 RNA 2 with U36C, U44A, C51G
B27: target 3 insG 3' of 6,insA 3' of 3 (mixed)
RNA 1: B1 RNA 1
RNA 2: B6 RNA 2 with A47G, G48A, U50G, G51A, C52U, A53C
B28: target 1 insA 3' of 13,insG 3' of 2 (mixed)
RNA 1: B5 RNA 1
RNA 2: B5 RNA 2 with C36A, A37G, G38A, A39G, G40A, U52G
B29: target 3 C1A,U8A (mixed)
RNA 1: B1 RNA 1
RNA 2: B1 RNA 2 with U36C, U44A, C51A
B30: target 3 U8A (mixed)
RNA 1: B1 RNA 1
RNA 2: B1 RNA 2 with U36C, U44A
B31: target 3 del5,del22 (mixed)
RNA 1: B1 RNA 1
RNA 2: GGGAAUGGAUCCACAUCUACGAAUUCGUUUUGAUCUGAAAUAUUCGGUCUGCAGAUCGGAAGAGCACACGU
B32: target 3 G4U,A5U (mixed)
RNA 1: B1 RNA 1
RNA 2: B1 RNA 2 with U36C, A47U, G48U
B33: target 3 C1U,A5G (mixed)
RNA 1: B1 RNA 1
RNA 2: B1 RNA 2 with U36C, A47G, C51U

molecular target: T1, EsCas13d, nuclease-dead; assay: crRNA (strand 1, pre-loaded); Mg2+; 40 mM Tris-HCl pH 7.5, 150 mM NaCl, 6 mM MgCl2, 1 mM DTT, 0.1% Tween-20, 0.2 mg/ml BSA; 25 C; 10 min per concentration, then washed; settings: tags: His6-TwinStrep-SUMO cleaved; N-terminal SNAP kept (SNAP-Surface 488); label: 3' end held by stalled T7 RNA polymerase

| Binder | Kd |
| --- | --- |
| B1 | 82.5 ± 14 nM |
| B2 | 89 ± 14.5 nM |
| B3 | ~91 nM |
| B4 | 64.5 ± 10 nM |
| B5 | 55 ± 18 nM |
| B6 | 54.2 ± 6.65 nM |
| B7 | 86 ± 24 nM |
| B8 | 29.9 ± 2.7 nM |
| B9 | 54 ± 14 nM |
| B10 | 23.1 ± 3.7 nM |
| B11 | 71 ± 33 nM |
| B12 | 26.6 ± 3 nM |
| B13 | 79 ± 17 nM |
| B14 | 97 ± 29 nM |
| B15 | 59.5 ± 13 nM |
| B16 | 49 ± 9 nM |
| B17 | 11.5 ± 0.9 nM |

| Binder | Kd |
| --- | --- |
| B18 | 59.5 ± 17.5 nM |
| B19 | 26.1 ± 5.05 nM |
| B20 | 71.5 ± 10 nM |
| B21 | 20.2 ± 2.4 nM |
| B22 | 92.5 ± 16.5 nM |
| B23 | 67 ± 26 nM |
| B24 | 7.3 ± 0.55 nM |
| B25 | 25.9 ± 4 nM |
| B26 | 45.5 ± 15.5 nM |
| B27 | 10.4 ± 1.15 nM |
| B28 | 3.54 ± 0.28 nM |
| B29 | 68 ± 17.5 nM |
| B30 | 58.5 ± 7.5 nM |
| B31 | 29.3 ± 2.3 nM |
| B32 | 25.2 ± 3.6 nM |
| B33 | 20.6 ± 3.3 nM |
